Tests used:
[1] = tested on: HER2 positive SK-BR-3 human breast cancer cells; experiment: BiTE-induced T cell cytotoxicity by LDH release, SK-BR-3 target cells; type: cell-based
Method: To evaluate whether desialylation may enhance the susceptibility of tumor cells to BiTE-mediated cytotoxicity by T cells, we first constructed a BiTE molecule from a HER2-targeting scFv 4D5 and a human CD3-targeting scFv (4D5 BiTE). We then treated HER2 positive SK-BR-3 human breast cancer cells with a sialidase derived from Bifidobacterium longum subspecies infantis (B. infantis) to remove cell surface sialic acids. Following this procedure, treated cells were incubated with PBMCs from healthy human donors in the presence of 4D5 BiTE. Staining with FITC-Sambucus nigra agglutinin (SNA) that binds preferentially to sialic acid attached to terminal galactose in an a-2,6 linkage confirmed the success of cell surface desialylation. […] A similar trend was observed when 4D5 BiTE treatment was combined with a sialylation inhibitor, P-3Fax-Neu5Ac (FIG. 1, b). Next, we treated SK-BR-3 and MCF-7 breast cancer cells with 4D5 BiTE and hPBMCs in the presence or absence of B. infantis sialidase, respectively. […] The cytotoxicity enhancement is also observed with a different E: T ratio of 1:1 and the improvement of the BiTE-induced killing was sialidase dose-dependent.
(§1) Cell cytotoxicity measurement by lactate dehydrogenase (LDH) release: T cell cytotoxicity induced by BiTEs and BiTE-sialidase fusion proteins was measured by lactate dehydrogenase (LDH) release using CytoTox 96® Non-Radioactive Cytotoxicity Assay (Promega, G1780). tumor cells and hPBMCs (tumor cell:hPBMC=1:5) per well in […] media were exposed to different treatments and incubated in 96 well plates at 37° C. (unless different ratio was specified elsewhere). After 24 hours of coincubation, […] of media supernatant from each well was transferred to a new flat bottom 96 well plate and LDH release was measured using the supplier's protocol.

[2] = tested on: MCF-7 breast cancer cells; experiment: BiTE-induced T cell cytotoxicity, MCF-7 target cells; type: cell-based, human
Method: (§2) To evaluate whether desialylation may enhance the susceptibility of tumor cells to BiTE-mediated cytotoxicity by T cells, we first constructed a BiTE molecule from a HER2-targeting scFv 4D5 and a human CD3-targeting scFv (4D5 BiTE). We then treated HER2 positive SK-BR-3 human breast cancer cells with a sialidase derived from Bifidobacterium longum subspecies infantis (B. infantis) to remove cell surface sialic acids. Following this procedure, treated cells were incubated with PBMCs from healthy human donors in the presence of 4D5 BiTE. Staining with FITC-Sambucus nigra agglutinin (SNA) that binds preferentially to sialic acid attached to terminal galactose in an a-2,6 linkage confirmed the success of cell surface desialylation. […]
as §1, with “(unless different ratio was specified elsewhere).” left out

PSMA-positive PC3 cells = experiment: PSMA BiTE-induced T cell cytotoxicity, PC3 target cells; type: cell-based, human; settings: sialidase and PSMA BiTEs added at the same time
Method: as §2
as §1, with “(unless different ratio was specified elsewhere).” left out

T cells [3] = experiment: T cell surface activation markers (CD25, CD69, CD107a) by flow cytometry; type: cell-based, human; settings: with 4D5 BiTEs
Method: (§3) Cytokine release and T cell surface activation marker measurement: For T cell cytokine release measurement, as with the cytotoxicity experiment, tumor cells and hPBMCs (tumor cell:hPBMC=1:5) were co-incubated per well in 96 well plates with different treatments in […] media at 37° C. for 24 hours. Then, […] of supernatant from each well was diluted in […] DPBS and used for IFN-γ, IL-2 and TNFα measurement. The ELISA measurement was done by ELISA MAX™ Sets. IFN-γ, IL-2 and TNFα kits (BioLegend) and the experiments were done according to the manufacturer's protocol. The exact concentration was calculated from a standard curve. For the cell surface activation marker measurement, tumor cells and hPBMCs (tumor cell:hPBMC=1:5) were co-incubated per well in 12 well plates with different treatments in 1 mL media at 37° C. for 24 hours. […] Cells were then washed twice with FACS buffer (PBS with 2.5% BSA) before being analyzed using flow cytometry. Data analysis and mean fluorescence intensity calculation were done by Flowjo. For the transcriptome analysis, 1.2 million hPBMCs and 0.1 million MDA-MB-231 cells were incubated together under the treatment of either 4 nM 4D5 BiTE or 4 nM 4D5 BiTE-sialidase (Three replicas for each condition). […]

T cells [4] = experiment: T cell cytokine release (IFN-γ, IL-2, TNFα) by ELISA; type: cell-based, human; settings: MCF7 cells incubated with hPBMCs and BiTE
Method: as §3

[5] = tested on: immune synapse between T cells and tumor cells; experiment: BiTE-induced immune synapse formation, confocal imaging of CD3 and actin; type: cell-based, human
Excerpt: Formation of the BiTE-induced immunological synapse (IS) between target cells and T cells is the essential mode of action of BiTEs. We hypothesized that the removal of cell-surface sialosides may promote stronger BiTE-induced IS formation between target tumor cells and T cells and thus better tumor cell killing. Accumulation of the TCR-CD3 complex and F-actin at the synapse is a hallmark of a stable and functional cytolytic IS in T cells. To test whether desialylation can promote IS formation, we imaged the IS formed between T cells and sialidase-treated and non-treated SK-BR-3 cells by staining F-actin and CD3. The resulting immunofluorescence was imaged by confocal microscopy. […] To assess the stability of the IS formed, we calculated the relative CD3 fluorescence intensity at the IS and the relative area of the IS.
Staining of human […] and actin for confocal imaging: Briefly, 0.4 million tumors cells were treated with 4 nM 4D5 BiTE or 4 nM 4D5 BiTE with 15 mg/ML sialidase in […] DMEM without the serum for 1 hr at 37° C. After the incubation, all the samples were washed twice using PBS before incubating with 0.4 million hPBMCs in 500 ml PBS for 30 min at 37° C. Then all the cells were transferred in 1 ml PBS to the coverslips in 12 well plates and incubated at 37° C. for 30 min to let cells attach to the coverslip. 1 ml 4% PFA was added to each well and incubated with shaking for 20 min at room temperature (RT) for cell fixing, and then each well was washed twice with ice cold PBS. […] PBST was used for washing for three times before anti-rabbit 488 (Invitrogen, 35553) and anti-mouse 594 ((Invitrogen, A-11005) secondary antibody was diluted and used for staining at RT for 30 min with shaking. Finally, samples were washed three times and each coverslip was transferred to a glass slide with mounting oil. Fingernail oil was used to seal the coverslip. Samples were analyzed on a Zeiss LSM880 with a 63× oil lens (NA 1.4). The relative mean fluorescent intensity (MFI) of […] accumulation and relative contact area of IS was calculated by imageJ.

[6] = tested on: CD19+ (Daudi) and EGFR+ (A549) cells; experiment: BiKE-sialidase desialylation selectivity in co-culture; type: cell-based, human; settings: 10 nM, 1h, serum-free medium, SNA or MALII staining
Method: We compared the desialylation activity and selectivity of BiKE-CD19-Sia and BIKE-EGFR-Sia in a co-culture assay comprising CD19+ (Daudi) and EGFR+ (A549) cells, respectively. 1:1 ratio of daudi cells and A549 cells were treated with PBS, 10 nM BiKE-CD19-Sia or 10 nM BiKE-EGFR-Sia for 1h in serum-free medium, followed by staining with SNA-biotin (targets α2,6-linker sialoglycans) or MALII-biotin (targets α2,3-linker sialoglycans) in HBSS buffer for 30 min. Next, the cell mixtures were stained by streptavidin-APC and EGFR-Pc5.5.

[7] = vs 4D5 BiTEs+hPBMCs and sialidase+hPBMCs controls
[8] = sialidase-treated vs untreated SK-BR-3 cells, 4D5 BiTE

## recombinant human CTLA-4: a high affinity ligand of CD80 [reference compound]
[1]; high concentrations of CTLA-4 added with sialidase and 4D5 BiTE
  desialylation-enhanced cytolysis with added CTLA-4: no change in the enhanced cytolysis

B1: B. infantis sialidase: sialidase derived from Bifidobacterium longum subspecies infantis, SEQ ID NO: 5 (protein, listed as Bifidobacterium longum)
chain: MTENGMMNTNNTVCGANHDGAMSLAAPGDYGVACYRIPALAEAPNGWILAAFDARPHNCQDAPQANSIVQRISKDGGRSFEPQHVVAAGHDGVDKYGYSDPSYVVDRQTGEVFLFFVKSYDAGFGTSQAGVDPSAREVLQAAVTSSIDNGVTWSEPRIITADITNSESWISRFASSGAGIQLTYGEHAGRLIQQYTIKELDGRYRAVSVFSDDHGATWHAGTPVGDHMDENKVVELSDGRVMLNSRSSDGNGCRYVAISRDGGATYGPVIRETQLPDPENNAQIARAFPDAPEGSAQAKVLLYSSSSPSDRIDGLVRVSIDDGKTWSAGRRFTTGPMAYSVIAALSHKAGGGYGLLYEGDNNNIMYTRISLDWLNGQLNVDGIGGFPLSGEGGC
[1]; tumor cells pre-treated with sialidase, hPBMCs, effector:target 5:1, vs 4D5 BiTEs alone
  4D5 BiTE-induced tumor cell killing by T cells after sialidase treatment: significantly potentiated the 4D5 BiTE-induced tumor cell killing
[1]; [7]
  killing with 4D5 BiTE and hPBMCs in presence of sialidase: stronger killing
[2]; purified T cells as effectors
  BiTE-mediated target cell killing with sialidase treatment: better BiTE-mediated target cell killing
[2]; [7]
  killing with 4D5 BiTE and hPBMCs in presence of sialidase: stronger killing
PSMA-positive PC3 cells
  PSMA BiTE-induced cytotoxicity with sialidase: stronger cytotoxicity enhancement
T cells [3]
  T cell activation (CD25 and CD69 expression) on addition of sialidase: significantly enhanced
T cells [4]
  IFN-γ secretion on addition of sialidase: significantly enhanced
[5]; SKOV-3 cells and T cells, with sialidase treatment
  BiTE-induced immune synapse formation: better IS formed
[5]; [8]
  CD3 accumulation at the immune synapse: significantly stronger CD3 accumulation
  relative immune synapse area: larger IS area

B2: BIKE-EGFR-Sia: anti-EGFR BiKE-sialidase fusion, TAL4S format, SEQ ID NO: 28 (protein)
chain: QVQLQESGPGLVKPSETLSLTCTVSGGSVSSGSYYWSWIRQPPGKGLEWIGYIYYSGSTNYNPSLKSRVTISVDTSKNQFSLKLSSVTAADTAVYYCARNPISIPAFDIWGQGTMVTVSSGGGGSGGGGSGGGGSQPVLTQPPSVSVAPGKTARITCGGNNIGSKSVHWYQQKPGQAPVLVIYYDSDRPSGIPERFSGSNSGNTATLTISRVEAGDEADYYCQVWDTSSDHVLFGGGTKLTVLGGGGSQVQLVQSGAEVKKPGESLKVSCKASGYTFTSYYMHWVRQAPGQGLEWMGIINPSGGSTSYAQKFQGRVTMTRDTSTSTVYMELSSLRSEDTAVYYCARGSAYYYDFADYWGQGTLVTVSSGGGGSGGGGSGGGGSSYVLTQPSSVSVAPGQTATISCGGHNIGSKNVHWYQQRPGQSPVLVIYQDNKRPSGIPERFSGSNSGNTATLTISGTQAMDEADYYCQVWDNYSVLFGGGTKLTVLGGGGSGGGGSGGGGSGGGGSMTENGMMNTNNTVCGANHDGAMSLAAPGDYGVACYRIPALAEAPNGWILAAFDARPHNCQDAPQANSIVQRISKDGGRSFEPQHVVAAGHDGVDKYGYSDPSYVVDRQTGEVFLFFVKSYDAGFGTSQAGVDPSAREVLQAAVTSSIDNGVTWSEPRIITADITNSESWISRFASSGAGIQLTYGEHAGRLIQQYTIKELDGRYRAVSVFSDDHGATWHAGTPVGDHMDENKVVELSDGRVMLNSRSSDGNGCRYVAISRDGGATYGPVIRETQLPDPENNAQIARAFPDAPEGSAQAKVLLYSSSSPSDRIDGLVRVSIDDGKTWSAGRRFTTGPMAYSVIAALSHKAGGGYGLLYEGDNNNIMYTRISLDWLNGQLNVDGIGGFPLSGEGGC
[6]
  selective desialylation activity: selective desilylation activity

Source: patent publication US20250354133A1, “SIALIDASE FUSION MOLECULES AND RELATED USES” (The Scripps Research Institute, priority 2022, published 2025)
